Patent US20170052184A1 (published 2017)
Ends that are not written are not given here.

T1: HCV Core1-169 recombinant antigen (hepatitis C virus (HCV-1), UniProt P26664 1-169)
T1 sequence: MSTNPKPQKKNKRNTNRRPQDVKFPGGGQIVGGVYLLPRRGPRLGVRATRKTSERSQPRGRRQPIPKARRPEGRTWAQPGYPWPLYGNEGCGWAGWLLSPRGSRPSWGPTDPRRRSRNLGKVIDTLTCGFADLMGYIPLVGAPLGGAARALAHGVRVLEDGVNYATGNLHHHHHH

T2: C113WT biotin labeled HCV core peptide (Hepatitis C virus, also: biotin label, position not given here)
T2 peptide: RGSRPSWGPTD

T3: C113T110N biotin labeled HCV core peptide (Hepatitis C virus, also: biotin label, position not given here)
T3 peptide: RGSRPSWGPND

B1: 208A-207-271 monoclonal antibody (antibody, V domains shown)
VH: QGQLQQPGAEFVKPGASLKLSCRASGYTFTSYWIHWVKQRPGQGLEWIGEIDPSDSYINQNQKFRGKATLTVDKSSSTAYMELSGLTSEDSAVYYCARHYYGVLDSWGQGTTLTVSS
VL: DIVLTQSPATLSVTPGDRVSLSCRASQRIYNYLHWYQQKSHESPRLLTKYASQSISGIPSRFSGSGSGTDFILTINSVETEDFGMYFCQQSNSWPLTFGAGTKLELRR
B2: 208B-395-334 monoclonal antibody (antibody, V domains shown)
VH: QVQLQQSGAGLAKPGASVKMSCKASGYTFTANKMHWTKQRPGQGLEWIGYIDPSSGYTQYNHKIQDKATLTADTSSSTAYMQLSSLTFEDSAVYYCTNFAYWGQGTLVTVSA
VL: DIVLTQSPATLSVTPGDRVSLSCRASQRIYNYLHWYQQKSHESPRLLIKYASQSISGIPSRFSGSGSGTDFILTINSVETEDFGMYFCQQSNSWPLTFGAGTKLELRR
B3: 208B-612-226 monoclonal antibody (antibody, V domains shown)
VH: EVQLQQSGPELVKPGASVKMSCKASGYRFTSYVMHWVRQKPGQGLEWIGYIDPHNDDTKYSEKFRGKATLTSDKSSTTAYMELSSLTSEDSAVYYCVRYSYDRDYSPMDYWGQGTSVTVSS
VL: QIVLTQSPTLMSASPGEKVTMTCSASSTVTYIYWYQQKPGSSPRLWMYDTFNLVSGVPARFSGSRSGTSYFLTISSMEGEDAATYYCQQYSDSPYTFGGGTKLEIKR
B4: HCV 208B-1096 monoclonal antibody (antibody, V domains shown)
VH: QVQLQQSGAGLAKPGASVKMSCKASGYTFTANKMHWAKQRPGQGLEWIGYIDPSSGYTEYNHKIQYKATLTADTSSSTAYMQLSTLTFEDSAVYYCTNFAYWGQGTLVTVSA
VL: DIVMTQTPLTLSVTIGQPASISCKSSQSLLFTNGKTYLNWFLQRPGQSPKRLIYLLSKLDSGVPDRFSGSGSGTDFTLKISRVEAEDLGVYYCLQSTYFPLTFGAGTKLELKR
B5: Neo4 monoclonal antibody (antibody, V domains shown)
VH: QIQLKESGPAVIKPSQSLSLTCIVSGFSITSSVYCWQWIRQPPGKGLEWMGRICYDGSVDYSPSITSRGTISRDTSLNKVFFQLSSVTNEDTAMYYCSRENHIDYYDTTYPSFDVWGAGTTVTVSS
VL: DIVLTQSPASLIVSLGQRATISCRASKSVNEYGYTYMHWYQQKPGLPPKLLIYLASNLDSGVPARFSGSGSGTDFTLNIHPVEEEDAATYYCQHSRELPYTFGGGTKLEIKR
notes: also called HCV Neo4

How the values were obtained:
[1] = molecular target: T1, HCV Core1-169 recombinant antigen; assay: sandwich EIA, 25 ng/ml core1-169; capture NC capture mAb
[2] = molecular target: T1, HCV Core1-169 recombinant antigen; assay: sandwich EIA, 25 ng/ml core1-169; capture mAb C11-7
[3] = molecular target: T1, HCV Core1-169 recombinant antigen; assay: sandwich EIA, 25 ng/ml core1-169; capture mAb 208A-293
[4] = molecular target: T1, HCV Core1-169 recombinant antigen; assay: sandwich EIA, 25 ng/ml core1-169; capture mAb 208B-1096
[5] = molecular target: T1, HCV Core1-169 recombinant antigen; assay: sandwich EIA, 25 ng/ml core1-169; capture mAb 208A-557
[6] = molecular target: T1, HCV Core1-169 recombinant antigen; assay: sandwich EIA, 25 ng/ml core1-169; capture mAb 208B-741
[7] = molecular target: T1, HCV Core1-169 recombinant antigen; assay: sandwich EIA, 25 ng/ml core1-169; capture mAb 208B-612-226
[8] = molecular target: T1, HCV Core1-169 recombinant antigen; assay: sandwich EIA, 25 ng/ml core1-169; capture mAb 208A-207-271
[9] = molecular target: T1, HCV Core1-169 recombinant antigen; assay: sandwich EIA, 25 ng/ml core1-169; capture mAb 208A-110
[10] = molecular target: T1, HCV Core1-169 recombinant antigen; assay: sandwich EIA, 25 ng/ml core1-169; capture mAb C11-9
[11] = molecular target: T1, HCV Core1-169 recombinant antigen; assay: sandwich EIA, 25 ng/ml core1-169; capture mAb 208A-692
[12] = molecular target: T1, HCV Core1-169 recombinant antigen; assay: sandwich EIA, 25 ng/ml core1-169; capture mAb 208B-395-334
[13] = molecular target: T2, C113WT biotin labeled HCV core peptide; assay: EIA, captured mAb + biotin peptide
[14] = molecular target: T3, C113T110N biotin labeled HCV core …; assay: EIA, captured mAb + biotin peptide

Row | Binder | OD492 nm [1] [OD492] | OD492 nm [2] [OD492] | OD492 nm [3] [OD492] | OD492 nm [4] [OD492] | OD492 nm [5] [OD492] | OD492 nm [6] [OD492] | OD492 nm [7] [OD492] | OD492 nm [8] [OD492] | OD492 nm [9] [OD492] | OD492 nm [10] [OD492] | OD492 nm [11] [OD492] | OD492 nm [12] [OD492] | binding result [13] | binding result [14]
1 | B1 | 0.37 | 2.47 | 0.42 | 0.33 | 0.82 | 0.3 | 0.33 | 0.36 | 0.38 | 2.2 | 0.42 | 0.37 |  | 
2 | B2 | 0.2 | 0.89 | 0.26 | 0.23 | 0.21 | 0.21 | 0.26 | 0.2 | 0.21 | 0.32 | 0.15 | 0.23 |  | 
3 | B3 | 0.21 | 1.52 | 0.28 | 0.7 | 0.23 | 0.23 | 0.23 | 0.24 | 0.26 | 0.64 | 0.18 | 0.83 |  | 
4 | B4 | 0.17 | 1.06 | 0.24 | 0.26 | 0.17 | 0.23 | 0.24 | 0.18 | 0.19 | 0.33 | 0.15 | 0.2 |  | 
5 | B5 |  |  |  |  |  |  |  |  |  |  |  |  | no binding | no binding
